Measured values as given in article PMC10786891, “Massively parallel profiling of RNA-targeting CRISPR-Cas13d”.
Numbering of substitutions follows the chain as printed. Numbers in names are those of the source.

T1: EsCas13d, nuclease-dead (Eubacterium siraeum, UniProt B0MS50, R295A;H300A;R849A;H854A)
T1 sequence: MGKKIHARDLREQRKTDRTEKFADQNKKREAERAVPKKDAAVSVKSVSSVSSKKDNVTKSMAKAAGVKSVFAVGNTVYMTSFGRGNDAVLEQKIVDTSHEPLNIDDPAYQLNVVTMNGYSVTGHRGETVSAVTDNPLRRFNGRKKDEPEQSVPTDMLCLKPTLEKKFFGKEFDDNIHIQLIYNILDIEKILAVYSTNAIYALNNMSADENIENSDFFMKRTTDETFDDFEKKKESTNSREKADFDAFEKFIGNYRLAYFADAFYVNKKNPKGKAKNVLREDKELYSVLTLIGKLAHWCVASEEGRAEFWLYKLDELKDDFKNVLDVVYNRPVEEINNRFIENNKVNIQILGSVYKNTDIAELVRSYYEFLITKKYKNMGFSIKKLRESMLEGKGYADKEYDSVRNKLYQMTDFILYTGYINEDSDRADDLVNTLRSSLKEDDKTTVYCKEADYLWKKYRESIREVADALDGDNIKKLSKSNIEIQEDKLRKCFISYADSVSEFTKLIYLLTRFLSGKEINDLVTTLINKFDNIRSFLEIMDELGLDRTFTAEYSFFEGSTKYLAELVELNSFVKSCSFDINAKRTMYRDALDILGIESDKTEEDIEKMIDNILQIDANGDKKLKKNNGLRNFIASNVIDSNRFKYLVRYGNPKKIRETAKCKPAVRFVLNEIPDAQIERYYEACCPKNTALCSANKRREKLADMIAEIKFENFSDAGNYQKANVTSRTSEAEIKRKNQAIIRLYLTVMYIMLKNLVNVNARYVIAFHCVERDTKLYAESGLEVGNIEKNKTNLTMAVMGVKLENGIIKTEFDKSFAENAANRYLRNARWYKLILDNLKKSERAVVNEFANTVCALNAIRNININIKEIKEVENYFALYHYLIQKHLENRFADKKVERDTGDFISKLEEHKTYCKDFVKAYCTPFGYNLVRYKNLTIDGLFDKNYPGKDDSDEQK

B1: target 3 U2C,U7G (mixed)
RNA 1: CACCCGUGCAAAAUUGCAGGGGUCUAAAACGACCUGAAUAUUUCAGAUCAAA
RNA 2: GGGAAUGGAUCCACAUCUACGAAUUCGUUUUUGAUCUGAAAUAUGCAGGCCUGCAGAUCGGAAGAGCACACGU
B2: target 3 C1A,U7A (mixed)
RNA 1: B1 RNA 1
RNA 2: B1 RNA 2 with G45A, C50U, C51A
B3: target 3 C6A,U22G (mixed)
RNA 1: B1 RNA 1
RNA 2: B1 RNA 2 with U30G, G45U, C46A, C50U
B4: target 3 insC 3' of 7,insC 3' of 5 (mixed)
RNA 1: B1 RNA 1
RNA 2: GGGAAUGGAUCCACAUCUACGAAUUCGUUUUUGAUCUGAAAUAUUCCACGGUCUGCAGAUCGGAAGAGCACACGU
B5: target 3 U2G,U21A (mixed)
RNA 1: B1 RNA 1
RNA 2: B1 RNA 2 with U31A, G45U, C50G
B6: target 3 C1A,G3U (mixed)
RNA 1: B1 RNA 1
RNA 2: B1 RNA 2 with G45U, G49U, C50U, C51A
B7: target 3 insG 3' of 6,insC 3' of 5 (mixed)
RNA 1: B1 RNA 1
RNA 2: B4 RNA 2 with C47G
B8: target 3 insA 3' of 8,insC 3' of 4 (mixed)
RNA 1: B1 RNA 1
RNA 2: B4 RNA 2 with U45A, C46U, C49G, G50C
B9: target 3 G4C,U21A (mixed)
RNA 1: B1 RNA 1
RNA 2: B1 RNA 2 with U31A, G45U, G48C, C50U
B10: target 3 G4U,U8G (mixed)
RNA 1: B1 RNA 1
RNA 2: B1 RNA 2 with U44G, G45U, G48U, C50U
B11: target 3 insU 3' of 22,insU 3' of 22 (mixed)
RNA 1: B1 RNA 1
RNA 2: GGGAAUGGAUCCACAUCUACGAAUUCGUUUUUUUGAUCUGAAAUAUUCAGGUCUGCAGAUCGGAAGAGCACACGU
B12: target 3 A5G,U8G (mixed)
RNA 1: B1 RNA 1
RNA 2: B1 RNA 2 with U44G, G45U, A47G, C50U
B13: target 3 insG 3' of 16,insA 3' of 2 (mixed)
RNA 1: B1 RNA 1
RNA 2: GGGAAUGGAUCCACAUCUACGAAUUCGUUUUUGAUCGUGAAAUAUUCAGGUACUGCAGAUCGGAAGAGCACACGU
B14: target 3 insG 3' of 8,insG 3' of 7 (mixed)
RNA 1: B1 RNA 1
RNA 2: B4 RNA 2 with U45G, C46U, C47G, A48C, C49A
B15: target 3 G3U,G4C (mixed)
RNA 1: B1 RNA 1
RNA 2: B1 RNA 2 with G45U, G48C, G49U, C50U
B16: target 3 insC 3' of 2,insU 3' of 1 (mixed)
RNA 1: B1 RNA 1
RNA 2: B4 RNA 2 with C47A, A48G, C49G, G50U, G51C, U52C, C53U
B17: target 3 insG 3' of 9,insA 3' of 7 (mixed)
RNA 1: B1 RNA 1
RNA 2: B4 RNA 2 with U44G, C46U, C47A, A48C, C49A
B18: target 3 insU 3' of 11,insA 3' of 6 (mixed)
RNA 1: B1 RNA 1
RNA 2: B4 RNA 2 with A43U, U44A, C46U, C49A
B19: target 3 G4U,U7A (mixed)
RNA 1: B1 RNA 1
RNA 2: B1 RNA 2 with G45A, G48U, C50U
B20: target 3 G19A,U20G (mixed)
RNA 1: B1 RNA 1
RNA 2: B1 RNA 2 with U32G, G33A, G45U, C50U
B21: target 3 G4C,A12U (mixed)
RNA 1: B1 RNA 1
RNA 2: B1 RNA 2 with A40U, G45U, G48C, C50U
B22: target 3 insG 3' of 9,insG 3' of 5 (mixed)
RNA 1: B1 RNA 1
RNA 2: B4 RNA 2 with U44G, C46U, C49G
B23: target 3 insA 3' of 21,insG 3' of 2 (mixed)
RNA 1: B1 RNA 1
RNA 2: B13 RNA 2 with U32A, G33U, A34G, U35A, C36U, G37C, A52G
B24: target 3 insA 3' of 17,insA 3' of 15 (mixed)
RNA 1: B1 RNA 1
RNA 2: B11 RNA 2 with U33G, U34A, G35U, U37C, C38U, U39A
B25: target 3 G3U (mixed)
RNA 1: B1 RNA 1
RNA 2: B1 RNA 2 with G45U, G49U, C50U
B26: target 3 insA 3' of 22,insU 3' of 4 (mixed)
RNA 1: B1 RNA 1
RNA 2: B13 RNA 2 with U31A, G33U, A34G, U35A, C36U, G37C, G50U, U51G, A52U
B27: target 3 C1U,G3U (mixed)
RNA 1: B1 RNA 1
RNA 2: B1 RNA 2 with G45U, G49U, C50U, C51U
B28: target 1 insC 3' of 20 (mixed)
RNA 1: CACCCGUGCAAAAAUGCAGGGGUCUAAAACUGAGCGGAUAACCUCUCUAUGG
RNA 2: GGGAAUGGAUCCACAUCUACGAAUUCGUACCACUAGAGAGGUUAUCCGCUCACCGAGAUCGGAAGAGCACACGU
B29: target 1 C2A,G13C (mixed)
RNA 1: B28 RNA 1
RNA 2: GGGAAUGGAUCCACAUCUACGAAUUCGUACCAUAGAGACGUUAUCCGCUAACCGAGAUCGGAAGAGCACACGU

The binders below were run against T1, EsCas13d, nuclease-dead (assay: crRNA (strand 1, pre-loaded); Mg2+; 40 mM Tris-HCl pH 7.5, 150 mM NaCl, 6 mM MgCl2, 1 mM DTT, 0.1% Tween-20, 0.2 mg/ml BSA; 25 C; 10 min per concentration, then washed). Details: tags: His6-TwinStrep-SUMO cleaved; N-terminal SNAP kept (SNAP-Surface 488); label: 3' end held by stalled T7 RNA polymerase.

Binder | Kd [nM]
B1 | 86 ± 33
B2 | 28.5 ± 14
B3 | 108 ± 25
B4 | 108 ± 18.5
B5 | 36.5 ± 7
B6 | ~75
B7 | 11.4 ± 1.1
B8 | 61.5 ± 9.5
B9 | 87 ± 16
B10 | 16.4 ± 2.35
B11 | 24.1 ± 3
B12 | 65.5 ± 7.5
B13 | 75 ± 30
B14 | 37.4 ± 3.15
B15 | 10.5 ± 1
B16 | 82.5 ± 27.5
B17 | 43.5 ± 5.5
B18 | 63 ± 8.5
B19 | 10.4 ± 1.4
B20 | 55 ± 8
B21 | 110 ± 45
B22 | 60 ± 13.5
B23 | 39.8 ± 3.75
B24 | 36.9 ± 8.1
B25 | 22.9 ± 2.2
B26 | 4.56 ± 0.52
B27 | 45.5 ± 11.5
B28 | 6.4 ± 0.4
B29 | 50 ± 5
